Experiment: soluble on expression in E. coli; label from the status in PepcDB or PDB records
With “HHHHHHSKEELLKLTETVVTEYLNSGNANEAVNGVREMRAPKHFLPEMLSKVIILSLDRSDEDKEKASSLISLLKQEGIATSDNFMQAFLNVLDQCPKLEVDIPLVKSYLAQFAARAIISELVSISELAQPLESGTHFPLFLLCLQQLAKLQDREWLTELFQQSKVNMQKMLPEIDQNKDRMLEILEGKGLSFLFPLLKLEKELLKQIKLDPSPQTIYKWIKDNISPKLHVDKGFVNILMTSFLQYISSEVNPPSDETDSSSAPSKEQLEQEKQLLLSFKPVMQKFLHDHVDLQVSALYALQVHCYNSNFPKGMLLRFFVHFYDMEIIEEEAFLAWKEDITQEFPGKGKALFQVNQWLTWLETA” the “soluble on expression in E. coli” value was “soluble”.
With “HHHHHHSVFEDDLPFLEFTGSIVYSYDASDCSFLSEDISMSLSDGDVVGFDMEWPPLYNRGKLGKVALIQLCVSESKCYLFHVSSMSVFPQGLKMLLENKAVKKAGVGIEGDQWKLLRDFDIKLKNFVELTDVANKKLKCTETWSLNSLVKHLLGKQLLKDKSIRCSNWSKFPLTEDQKLYAATDAYAGFIIYRNLEILDDTVQR” the “soluble on expression in E. coli” value was “soluble”.
For “HKEFAVTMRPTEASERCHLRGSYTLRAGESALELWGGPEPGTQLYDWPYRFLRRFGRDKVTFSFEAGRRCVSGEGNFEFETRQGNEIFLALEEAISAQKN”, the “soluble on expression in E. coli” value was “soluble”.
For “HLVCPMSKSPYVDPHKSGHEIWEEFSMSFTPAVKEVVEFAKRIPGFRDLSQHDQVNLLKAGTFEVLMVRFASLFDAKERTVTFLSGKKYSVDDLHSMGAGDLLNSMFEFSEKLNALQLSDEEMSLFTAVVLVSADRSGIENVNSVEALQETLIRALRTLIMKNHPNEASIFTKLLLKLPDLRSLNNMHSEELLAFKVHP”, the “soluble on expression in E. coli” value was “soluble”.
With “HMSSGNASWFQAIKAKKLNTPPPKFEGSGVPDNENMKPSQQHGYWRRQARFKPGKGGRCPVPDAWYFYYTGTGPAADMNWGDTQDGIVWMAAKGADTKSRSNQGTRDPDKFDQYPLRFSDGGPDGNFRWDFIPL” the “soluble on expression in E. coli” value was “soluble”.
For “HQYFFAKLQEQQNRYAKYGETAYNLEPNIKNGPGGLRDLQILLSISKRHFKIKKLAEGIGYGFITDKEYEELKYCQNFLWRVRFALHMLAGKPEERLSFDYQVKLAQFFGYQDQSHILAIEQFMKDYFKVIKRNRELNEMLLQWFNETIVYHQKQKIIRLDDEFQLSNRFIEVRNNRVFKQNPQSILKLFYWLVKRPDIEGVRASTIRLI”, the “soluble on expression in E. coli” value was “not soluble”.
With “HRQLLSRDTHGFNVTVTSTIPEDAGLGDQEALIMAAALAFAHDYEDVHTAPIKAKFADVCFQASQAATGRPHVRARFDSALRGLASDLNIVDYSDGSVTHFPHPLNTQSDYAAFVVIPPVGAEQTAEVERRQAFITSAEKAFGTDSLRVLPDARERVIEWLQAVHEVCGTDDVPTITEAANWLEFMENETQAAINAAQAIKSRRHAACFDIVSESQRNLESLYTITTTDAMLSQLCLSRGAVSAR” the “soluble on expression in E. coli” value was “not soluble”.
In the case of “HRRNATSLQLSRCANIADRTGLDALGGRRHSRRCPPPQRGLAAIKPLRQHRRRPVRSHIGGNQFADLPHQVDAFVHGKTDAVMLQPRQHAAKRGLRSIVRHFFIRQYRSLIIKRRAHTPGIRQLYRIAHCLRRPVLCGEPFYGFLFESNPLRLIEAV”, the “soluble on expression in E. coli” value is reported as “not soluble”.
With “HSLFPIPRMGDSAAKIVSPQEALPGRKEPLVVAAKHHVNGNRTVEPFPEGTQMAVFGMGCFWGAERKFWTLKGVYSTQVGFAGGYTPNPTYKEVCSGKTGHAEVVRVVFQPEHISFEELLKVFWENHDPTQGMRQGNDHGSQYRSAIYPTSAEHVGAALKSKEDYQKVLSEHGFGLITTDIREGQTFYYAEDYHQQYLSKDPDGYCGLGGTGVSCPL” the “soluble on expression in E. coli” value was “soluble”.
For “HYPKALDQLSEDRGYAFSYPTAAPCERLVWSISQSLMEGKEINALFDRINSSTKRDMVTKVSPKAPHTVVLVLGESARPDYMHSYGYPLENTPRLDSLLASGAAVQFDDVVSAKPNTQGSIAAMMSIGESRAGGKWYDDPMLIPLLRSAGYYTFWLSAQEKLGFAVQNVTAIAKLSDSTLFVFRGMDDVVLPNLMQRAEYQNLFEVVHLSGSHVSYQDRYPSEFGKFTSENLPSHHDESKDAVVAHYVNSLYYTDYILGEIERKYANEDAIIIYLSDHGQVLYDAPNNPNLVGHSFSQQGVSIPLFIYLSPSMRTKYPELIPRLQSIRSRRIMTDVLPYAIMGLLGIESPLYNPELDFWGTGYDEHRPRVIYSDDSSLVID”, the “soluble on expression in E. coli” value was “not soluble”.
In the case of “HYTSVPNIMKVIKPLFLDKLNQSFLDAYDDYTKLENLLTRIGKIKFFDPACGSGNFLIITYKELRRMEINIIKRLQELLGEYLYVPSVTLSQFYGIEIEDFAHDVAKLSLWIAEHQMNEELKNEVHNAVRPTLPLHTAGDIRCANAIRVEWTEVCPAQGSEEVYVFGNPPYLGSKKQNKEHKSDMLSIFGKVKNGKMLDYISAWFYFGAKYASTTNAKVAFVSTNSVTQGEQVSILWNELFKFGI”, the “soluble on expression in E. coli” value is reported as “not soluble”.
With “IALGGGAAKGFAHIGVLKMLEANGLAPSVVAGTSAGSVVGALYASGMDSFKIQTKAVAMDESNIRDLRFFSGGLVQGQKLQNYVNELVGKRPIEKLNMPFGAIATRLEDGQRTMFVRGNVGEAVRASCSIPGVFEPVTIGAYHYVDGGITSPVPV” the “soluble on expression in E. coli” value was “not soluble”.
For “IAPTVWKLADRSKIYMADLESALHYILRIEVGRFPVLEGQRLVALKKFVAVLAKYFPGRPLVQNFLHSVNEWLKRQKRNKIPYSFFKTALDDRKEGAVLAKKVNWIGCQGSEPHFRGFPCSLWVLFHFLTVQAARQNVDHSQEAAKAKEVLPAIRGYVHYFFGCRDCASHFEQMAAASMHRVGSPNAAVLWLWSSHNRVNARLAGAPSEDPQFPKVQWPPRELCSACHNERLDVPVWDVEATLNFLKAHFSPSNIILDFPA”, the “soluble on expression in E. coli” value was “soluble”.
In the case of “IDHIEVLRDGASARYGSDAIAGVINIILKSADHGGSISSKYGQYKKGDGIQRQVSGNTGFALGDNGTLNLSGEGANNDYTNRAGDDLRASSIGSTTYGQQVFRQGEPETHEGKLQYNAEYSFNDAAEFYSFGGYSKRRGETAAFYRPSNASNNIAAIYPNGYLPLIHGTLEDTTFVTGLRGELADDWHYDLSANYGKNSYELRTKTINTSLGLNTPRSFDNGTLTNDQKQLSLDLSREFNATWLPYPVSVAFGAEYLRQGYQIEAGQAESYFQTGSSGLGGFRAADAGSYSRHNFAQYLDVETNLTEKLGVSAAVRHEDYSDFGSNVSGSLSARYDFTP”, the “soluble on expression in E. coli” value is reported as “not soluble”.
In the case of “IGKVKYNLGFNLYDAKTKITKYNNETGLFGKDKNDKDTYRVGMELGEIWGYVTDRLYTVDDFDADGKLKAGIPKVEGYNPNPGDILYKDLDDNDIINGGTSTTKDPGDRKIIGNSTRRYQYGIHGGANWKGVSLSFLLQGVGKRDLWIMNDLFYPHYDAWTTVYDTQLNYWTPERTDSYFPRLYEKAAGNTAANTRIQTRYLQDGSYLSIRNITLSYNFPSKWMTKIGVNNLAVFFSGENLYTFDHLPKGLDPERSVTDDLGQRGFTYPYMRQYSFGINLSF”, the “soluble on expression in E. coli” value is reported as “not soluble”.
For “IGQVKYNIGGSLSDAWSKVLELANNENVPNEGKNENRLIGMPRQALYVYQTDGIFQSADEVAAYYEKYYWNADHSGPKANNILPAPQEASTNTLRPGARKVVDLNGDGAITKDDLYYAGDMAPRLTFGFKLGLEWKGIDFSAFFQGVGKQVLLRGGYLAAPWTTNYVLQNKNFAGKMWSENNRDAEYTIASRDQNFNKWNYNNKDVSVQNNRYVRLKSLVVGYSLPQKWISKAGLSKLRVYFSGDDLWEWTKVKDGYDPEYGENSNNTFPFSRLLTFGVDVTF”, the “soluble on expression in E. coli” value was “not soluble”.
For “IKGSTDMDHSGFIQKFIALYGGLNKHTLHHLSEIYSYDVQFIDAVHEINGIDELTDYFTHLYTNLIECKFTIHHVIEDINLTQGEATLFWTMNYKHPKIGKGKSISVEGVSHIKFNDKVFYHRDFLDMGQMVYEHLPLIGPMVKFIKKRVQA”, the “soluble on expression in E. coli” value was “soluble”.
In the case of “ILYLHGGYNTLQPSPFHWRLLDKLTLNTLHEVVLPIYPKSPDYHYLETFKAIRDVYNQLVEEVGANNIVMMGDGSGGGLALSFVQSLINDNQEVPRKLFLLSPLLDATLTNPNITKTLEENDILVSRFGVHQLMKSWTNDLPLSDARISPLYGTLKGLPPIYMYGGGREILSPDMHAFTHALEECGNDVEFKEYPKMVHDFPIYPIRQSHKVLKHITKSI”, the “soluble on expression in E. coli” value is reported as “not soluble”.
With “IQQFNYGVRLVMSDNMQKILEYPNKTLSLGEKYYTGKTIGEIWGYKTIGIAQTQEEMDKHLANGGKPNWGSAWGAGDIMYANIDGKDGVNSGANTVNDHGDLKIIGNSTPRYNFGLTLDGSWKGLDFSLFIQGVMKRDYMLDGPYFWGANGGMWQSCVFKEHLDYWRPEGDPLGANTNAYYPKPYFSSNKNQKTQSGYLQNAAYCRLKNAQIGYTLPKAWTKKAAMESVRVYVSGDNLLTISGISDIFDPETLGGDWGPGKLYPLQRTISIGLNVNF” the “soluble on expression in E. coli” value was “not soluble”.
For “IVGGQECKDGECPWQALLINEENEGFCGGTILSEFYILTAAHCLYQAKRFKVRVGDRNTEQEEGGEAVHEVEVVIKHNRFTKETYDFDIAVLRLKTPITFRMNVAPACLPERDWAESTLMTQKTGIVSGFGRTHEKGRQSTRLKMLEVPYVDRNSCKLSSSFIITQNMFCAGYDTKQEDACQGDSGGPHVTRFKDTYFVTGIVSWGEGCARKGKYGIYTKVTAFLKWIDRSMKTRGLPKAKSHAPEVITSSPLK”, the “soluble on expression in E. coli” value was “soluble”.
In the case of “IVMADWLKIRGTLKSWTKLWCVLKPGVLLIYKTQKNGQWVGTVLLNACEIIERPSKKDGFCFKLFHPLEQSIWAVKGPKGEAVGSITQPLPSSYLIIRATSESDGRCWMDALELALK”, the “soluble on expression in E. coli” value is reported as “soluble”.
For “IVPTRELENVFLGRCKDYEITRYLDILPRVRSDCSALWKDFFKAFSFKNPCDLDLGSYKDFFTSAQQQLPKNKVMFWSGVYDEAHDYANTGRKYITLEDTLPGYMLNSLVWCGQRANPGFNEKVCPDFKTCPVQARESFWGMASSSYAHSAEGEVTYMVDGSNPKVPAYRPDSFFGKYALPNLTNKVTRVKVIVLHRLGEKIIEKCGAGSLLDLEKLVKAKHFAFDCVENPRAVLFLLCSDNPNARECRLAKRFYRIA”, the “soluble on expression in E. coli” value was “soluble”.
In the case of “KASDQFIVYRASIAGPTMIAGYHWFNERGRDILIALPGLALVPQRFDLAKGVLRTFRHYYRHGLMPNVFPDADGEPLYNSIDAALWWVETLGLYLEATQDWEFLAEQFSVVQQIHKAFVGGTHYNIQVDAIDGLISWDARGVALTWMDVVIGANPVTPRHGKPVEINALWYSALCWLSRWAERLSSLELGDPVRLTKQAQRYALQAEKVKTSLQKFWNPQLGYLYDTIEPDDRRNFQIRPNAVLALSLHHCGFSAQQGSQILDLATISLLTPYGLRSLDPGDPEYKGRYEGNQEQRDRAYHQGTVWGWLIGPYIRAWQRFYPEQSLPFDWQPLLDHFLSGACLGSISEIFDGDAPHTPRGAIAQAWSVAEIIRHIQK”, the “soluble on expression in E. coli” value is reported as “not soluble”.
With “KEAIVFSQKTTIDQLHNSLNAASKTGNSNEVLQDPHIGDMYGSVTPLRPQVTRMLGKYAKEKEDMLSLRQVLANAERSYNQLMDRAAN” the “soluble on expression in E. coli” value was “soluble”.
With “KEELESIINSSPVIVFLWKYEEGWPIEFVSENVTRLGYEVEDFTSRKILYGNIVYPGDLEKVERELARNIEFGCEDYSSEYRILTKSGEVRWVDERTFIQRDEKGEIRLQGIILDIT” the “soluble on expression in E. coli” value was “not soluble”.
With “KEQILSSEQLARKMMLELGDKKQEHLVAIYMDTQNRIIEQRTIFIGTVRRSVAEPREILHYACKNMATSLIIIHNHPSGSPKPSESDLSFTKKIKRSCDHLGIVCLDHIIVGKNKYYSFREEADI” the “soluble on expression in E. coli” value was “not soluble”.
In the case of “KFVSDVEKEMETLVEAVNKGKNSKKSHSFPPMNRDHRRIIHDLAQVYGLESVSYDSEPKRNVVVTAIR”, the “soluble on expression in E. coli” value is reported as “soluble”.

Reference: the DeepSol protein solubility set
